Results from US20210283168A1, “BETA GLUCAN AND CD40 AGONIST COMBINATION IMMUNOTHERAPY” (HiberCell, Inc., priority 2018, published 2021).
Entries after “also recorded” stand apart in the source; their conditions may differ.

B1: ADC-1013 (antibody, chains of the INN, looked up, V domains shown)
VH: EVQLLESGGGLVQPGGSLRLSCAASGFTFSTYGMHWVRQAPGKGLEWLSYISGGSSYIFYADSVRGRFTISRDNSENALYLQMNSLRAEDTAVYYCARILRGGSGMDLWGQGTLVTVSS
VL: QSVLTQPPSASGTPGQRVTISCTGSSSNIGAGYNVYWYQQLPGTAPKLLIYGNINRPSGVPDRFSGSKSGTSASLAISGLRSEDEADYYCAAWDKSISGLVFGGGTKLTVL

Key:
[1] = tested on: KPC-derived PDAC cell line (7940B, P9); test: subcutaneous KPC-derived PDAC tumor model: tumor growth and overall survival; conditions: for anti-tumor activity / impact on tumor growth (in words): mouse, in vivo
[2] = molecular target: CD40 ligand interaction with CD40 (Homo sapiens, UniProt P25942); conditions: cited from earlier work
Chain of CD40 ligand interaction with CD40 (P25942 21-277): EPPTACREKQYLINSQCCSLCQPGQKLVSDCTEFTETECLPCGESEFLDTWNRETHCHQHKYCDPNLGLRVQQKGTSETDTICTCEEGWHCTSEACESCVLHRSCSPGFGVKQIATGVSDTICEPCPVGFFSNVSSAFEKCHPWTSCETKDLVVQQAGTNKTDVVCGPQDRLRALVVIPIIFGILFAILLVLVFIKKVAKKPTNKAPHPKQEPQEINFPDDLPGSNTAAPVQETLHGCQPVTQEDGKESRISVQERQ

CD40 [3] = molecular target: T1, CD40 (Homo sapiens, UniProt P25942); conditions: cited from earlier work; for dependence on crosslinking for activity: CD40 stimulation
T1 sequence (P25942 21-277): as above

CD40 [4] = molecular target: T1, CD40; conditions: binding to CD40; ADC-1013: even under acidic conditions (pH 5.4); read-out: binding affinity (Kd); cited from earlier work
FcR = conditions: cited from earlier work
B cell = conditions: cited from earlier work
B cell lymphoma lines = conditions: cited from earlier work
FcgRIIIa = FcgRIIIa (Homo sapiens, UniProt P08637); conditions: non-fucosylated, derived from dacetuzumab; cited from earlier work
Chain of FcgRIIIa (P08637 17-254): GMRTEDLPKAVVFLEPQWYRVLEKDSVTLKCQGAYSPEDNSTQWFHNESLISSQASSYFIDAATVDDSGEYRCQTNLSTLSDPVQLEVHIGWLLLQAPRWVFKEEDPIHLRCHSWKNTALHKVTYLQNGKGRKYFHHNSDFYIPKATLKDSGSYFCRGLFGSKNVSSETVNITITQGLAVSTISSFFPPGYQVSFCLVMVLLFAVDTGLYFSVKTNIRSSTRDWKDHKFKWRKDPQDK

[5] = intravenous infusion, more than 400 human subjects; cited from earlier work

Molecule	anti-tumor activity / impact on tumor growth (in words) [1]	ability to block CD40 ligand binding [2]	dependence on crosslinking for activity (CD40 [3])	Kd (CD40 [4])	agonist activity (CD40 [3])	also measured
Nc1ccn([C@@H]2O[C@H](CO)[C@@H](O)C2(F)F)c(=O)n1 [Gemcitabine, reference compound]	no significant impact on tumor growth					
CP-870,893: anti-CD40 IgG2 antibody (Pfizer and VLST)		does not block CD40 ligand interaction with CD40	can mediate CD40 stimulation in the absence of cross-linking	0.348 nM		FcR binding (FcR): poor
Dacetuzumab: humanized IgG1 antibody recognizing CD40 (Seattle Genetics)		enhances CD40 ligand binding to CD40		1 nM	partial agonist	activity in stimulating B cell proliferation (B cell): weak activity; anti-proliferative and pro-apoptotic properties against B cell lymphoma lines (B cell lymphoma lines): potent anti-proliferative and pro-apoptotic properties
SEA-CD40: non-fucosylated humanized IgG1 anti-CD40 antibody derived from dacetuzumab (Seattle Genetics)				1 nM	improved agonist activity	binding to FcgRIIIa (FcgRIIIa): enhanced binding
β(1,6)-[poly-(1,3)-D-glucopyranosyl]-poly-β(1,3)-D-glucopyranose [IMPRIME PGG]	limited activity as monotherapy; also recorded: minimal activity					delay in tumor outgrowth / anti-tumor activity, previous experiment ([1]; previous experiment (data not shown)): 3 of 9; delay in tumor outgrowth (mice with delayed tumor growth) ([1]; single dose day 0: FGK45 0.1 mg i.p., IMPRIME PGG 1.2 mg i.v., gemcitabine 120 mg/kg day -2): 1 of 10; safety of systemic administration [5]: administered safely
B1			activity dependent on FcR binding and crosslinking	0.01 nM		
